Reference: PMC10989752, “LipR functions as an intracellular pH regulator in Bacillus thuringiensis under glucose conditions”

T1: LipR (Bacillus thuringiensis BMB171, UniProt A0A0G3DYA8 1-337)
T1 sequence: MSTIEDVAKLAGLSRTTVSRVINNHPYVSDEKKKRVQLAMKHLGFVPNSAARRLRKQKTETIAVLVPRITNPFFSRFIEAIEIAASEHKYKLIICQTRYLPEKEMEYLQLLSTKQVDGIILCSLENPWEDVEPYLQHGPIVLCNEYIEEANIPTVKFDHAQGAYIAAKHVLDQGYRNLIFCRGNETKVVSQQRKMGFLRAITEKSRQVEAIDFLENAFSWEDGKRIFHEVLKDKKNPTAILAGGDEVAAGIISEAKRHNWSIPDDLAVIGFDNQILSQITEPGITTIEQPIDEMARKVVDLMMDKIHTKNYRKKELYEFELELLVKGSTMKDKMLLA


Target: T1, LipR
Assay: EMSA; LipR: 25 mM Tris pH 8.5-9, 150 mM NaCl, 10% glycerol; CcpA/AbrB: 50 mM Tris-HCl pH 7.5, 10 mM MgCl2, 1 mM DTT, 100 mM NaCl; 28 C, 25 min, 10 ul; 500 ng poly(dI-dC) when needed; 6% native PAGE, 0.5x TBE
Conditions: protein: recombinant, tags: C-terminal His (pET-28a), chain copies: 2

Binder	binding result	binding result (blunt)
D6 (dsDNA) DNA 1: CAATTTAAGAAAACGTTTTCATG DNA 2: CATGAAAACGTTTTCTTAAATTG	binds	
30-bp footprint fragment (dsDNA) DNA 1: ATATAATCAATTTAAGAAAACGTTTTCATG DNA 2: CATGAAAACGTTTTCTTAAATTGATTATAT	binds	
18-bp minimal LipR site (dsDNA) DNA 1: TAAGAAAACGTTTTCATG DNA 2: CATGAAAACGTTTTCTTA		binds
